Test results taken from patent publication US20210122826A1.

Key:
[1] = target: Human CD209 (human) (UniProt Q9NNX6); experiment: flow, Jurkat, 100 nM Ab
[2] = target: Human CD94 (human) (UniProt Q13241); experiment: flow, Jurkat, 100 nM Ab
[3] = target: Human Clec10A (human) (UniProt Q8IUN9); experiment: flow, Jurkat, 100 nM Ab
[4] = target: Human Clec12B (human) (UniProt Q2HXU8); experiment: flow, Jurkat, 100 nM Ab
[5] = target: Human Clec4E (human) (UniProt Q9ULY5); experiment: flow, Jurkat, 100 nM Ab
[6] = target: Human Clec5A (human) (UniProt Q9NY25); experiment: flow, Jurkat, 100 nM Ab
[7] = target: Human Clec7A (human) (UniProt Q9BXN2); experiment: flow, Jurkat, 100 nM Ab
[8] = target: Human Clec9A (human) (UniProt Q6UXN8); experiment: flow, Jurkat, 100 nM Ab
[9] = target: Human KLRF1 (human) (UniProt Q9NZS2); experiment: flow, Jurkat, 100 nM Ab
[10] = target: Human KLRF2 (human) (UniProt D3W0D1); experiment: flow, Jurkat, 100 nM Ab
[11] = target: Human KLRG1 (human) (UniProt Q96E93); experiment: flow, Jurkat, 100 nM Ab
[12] = target: Human OLR1 (human) (UniProt P78380); experiment: flow, Jurkat, 100 nM Ab
[13] = target: cynomolgus CD161 (cynomolgus); experiment: flow, Jurkat, 100 nM Ab
[14] = target: human CD161 (human) (UniProt Q12918); experiment: flow, Jurkat, 100 nM Ab
[15] = target: cynomolgus CD161 (cynomolgus); experiment: flow, Jurkat, Ab titration
[16] = target: human CD161 (human) (UniProt Q12918); experiment: flow, Jurkat, Ab titration
[17] = target: human CD161 (human) (UniProt Q12918); experiment: flow cytometry titration of antibody on Jurkat hCD161+ cells, fluorescent secondary antibody, MFI against Ab concentration (log [M])
[18] = target: cynomolgus CD161 (cynomolgus); experiment: flow cytometry titration of antibody on Jurkat cynoCD161+ cells, fluorescent secondary antibody, MFI against concentration (log [M])

cynomolgus CD161 (cynomolgus), sequence (chain, as listed by the source limits assumed): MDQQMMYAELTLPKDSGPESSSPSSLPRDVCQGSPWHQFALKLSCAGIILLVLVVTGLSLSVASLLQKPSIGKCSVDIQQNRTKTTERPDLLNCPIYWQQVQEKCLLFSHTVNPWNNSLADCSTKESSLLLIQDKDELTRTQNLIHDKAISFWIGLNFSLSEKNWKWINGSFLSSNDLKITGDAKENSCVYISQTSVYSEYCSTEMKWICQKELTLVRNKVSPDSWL
Human KLRF1 (human), sequence (Q9NZS2 whole entry): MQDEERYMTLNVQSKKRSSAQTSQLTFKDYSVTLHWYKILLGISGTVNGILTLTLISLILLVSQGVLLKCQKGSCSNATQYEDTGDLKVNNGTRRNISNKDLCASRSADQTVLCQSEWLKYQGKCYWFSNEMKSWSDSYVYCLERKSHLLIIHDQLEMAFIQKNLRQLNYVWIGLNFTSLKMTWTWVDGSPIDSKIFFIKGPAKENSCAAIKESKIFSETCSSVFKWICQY
Human Clec7A (human), sequence (Q9BXN2 whole entry): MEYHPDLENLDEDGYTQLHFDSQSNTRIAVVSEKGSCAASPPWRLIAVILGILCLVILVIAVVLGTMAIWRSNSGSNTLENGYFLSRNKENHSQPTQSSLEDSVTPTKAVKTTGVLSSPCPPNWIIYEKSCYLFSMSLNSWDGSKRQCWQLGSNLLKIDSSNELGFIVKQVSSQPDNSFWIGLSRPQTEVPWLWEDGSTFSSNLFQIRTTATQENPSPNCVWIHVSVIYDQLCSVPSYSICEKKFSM
Human Clec12B (human), sequence (Q2HXU8 whole entry): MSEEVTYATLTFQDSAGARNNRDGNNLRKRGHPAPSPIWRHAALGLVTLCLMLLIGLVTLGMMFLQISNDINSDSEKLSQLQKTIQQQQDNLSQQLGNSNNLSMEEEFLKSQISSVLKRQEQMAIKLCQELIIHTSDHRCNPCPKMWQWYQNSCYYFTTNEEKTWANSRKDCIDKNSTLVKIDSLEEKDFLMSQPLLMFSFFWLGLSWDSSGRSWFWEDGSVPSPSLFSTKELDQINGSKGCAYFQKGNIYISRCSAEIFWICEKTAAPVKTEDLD
Human Clec5A (human), sequence (Q9NY25 whole entry): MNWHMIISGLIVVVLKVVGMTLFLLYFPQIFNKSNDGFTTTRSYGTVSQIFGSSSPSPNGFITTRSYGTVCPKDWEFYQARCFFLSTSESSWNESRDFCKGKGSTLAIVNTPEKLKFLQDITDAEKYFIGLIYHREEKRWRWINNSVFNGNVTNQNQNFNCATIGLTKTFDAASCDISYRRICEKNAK
Human CD94 (human), sequence (Q13241 whole entry): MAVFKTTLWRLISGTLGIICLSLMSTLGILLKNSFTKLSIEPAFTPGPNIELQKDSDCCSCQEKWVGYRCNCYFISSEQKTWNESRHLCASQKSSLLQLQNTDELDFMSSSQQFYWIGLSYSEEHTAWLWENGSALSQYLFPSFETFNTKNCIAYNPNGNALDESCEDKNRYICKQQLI
Human CD209 (human), sequence (Q9NNX6 whole entry): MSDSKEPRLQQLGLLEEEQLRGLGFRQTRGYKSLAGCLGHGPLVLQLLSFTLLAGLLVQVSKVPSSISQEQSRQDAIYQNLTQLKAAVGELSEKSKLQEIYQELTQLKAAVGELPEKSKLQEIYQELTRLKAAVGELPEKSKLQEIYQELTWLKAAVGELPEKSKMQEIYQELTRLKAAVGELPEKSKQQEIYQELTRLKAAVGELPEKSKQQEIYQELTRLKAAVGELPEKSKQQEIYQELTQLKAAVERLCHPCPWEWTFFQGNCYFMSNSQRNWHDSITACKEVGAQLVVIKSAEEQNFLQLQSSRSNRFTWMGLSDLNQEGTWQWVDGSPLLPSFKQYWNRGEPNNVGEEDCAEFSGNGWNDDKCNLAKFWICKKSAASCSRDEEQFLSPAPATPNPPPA
Human KLRG1 (human), sequence (Q96E93 whole entry): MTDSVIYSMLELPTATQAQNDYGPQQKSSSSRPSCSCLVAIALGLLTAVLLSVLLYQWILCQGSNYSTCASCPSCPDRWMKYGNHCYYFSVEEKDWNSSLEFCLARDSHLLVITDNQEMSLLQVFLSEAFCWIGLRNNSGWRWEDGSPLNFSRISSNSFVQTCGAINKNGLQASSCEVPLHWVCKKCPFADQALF
Human Clec10A (human), sequence (Q8IUN9 whole entry): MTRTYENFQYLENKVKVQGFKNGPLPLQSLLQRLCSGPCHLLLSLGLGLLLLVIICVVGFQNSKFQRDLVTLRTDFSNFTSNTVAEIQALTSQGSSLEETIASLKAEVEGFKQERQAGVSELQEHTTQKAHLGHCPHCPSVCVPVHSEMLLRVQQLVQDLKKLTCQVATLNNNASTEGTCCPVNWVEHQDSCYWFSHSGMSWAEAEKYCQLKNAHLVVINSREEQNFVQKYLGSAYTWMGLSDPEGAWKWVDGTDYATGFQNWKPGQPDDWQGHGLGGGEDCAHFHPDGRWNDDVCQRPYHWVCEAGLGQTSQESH
Human Clec4E (human), sequence (Q9ULY5 whole entry): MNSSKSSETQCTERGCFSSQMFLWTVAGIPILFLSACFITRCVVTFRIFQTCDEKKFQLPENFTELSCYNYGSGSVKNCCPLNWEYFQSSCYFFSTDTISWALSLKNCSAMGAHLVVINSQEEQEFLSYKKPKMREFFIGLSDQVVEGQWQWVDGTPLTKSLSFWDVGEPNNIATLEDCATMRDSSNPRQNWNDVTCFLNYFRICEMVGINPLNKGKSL
Human KLRF2 (human), sequence (D3W0D1 whole entry): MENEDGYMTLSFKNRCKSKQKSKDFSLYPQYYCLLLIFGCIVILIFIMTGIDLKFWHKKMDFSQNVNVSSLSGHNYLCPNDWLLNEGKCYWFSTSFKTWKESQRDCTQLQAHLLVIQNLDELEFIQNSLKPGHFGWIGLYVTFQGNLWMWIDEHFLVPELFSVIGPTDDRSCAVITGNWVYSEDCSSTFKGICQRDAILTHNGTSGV
Human Clec9A (human), sequence (Q6UXN8 whole entry): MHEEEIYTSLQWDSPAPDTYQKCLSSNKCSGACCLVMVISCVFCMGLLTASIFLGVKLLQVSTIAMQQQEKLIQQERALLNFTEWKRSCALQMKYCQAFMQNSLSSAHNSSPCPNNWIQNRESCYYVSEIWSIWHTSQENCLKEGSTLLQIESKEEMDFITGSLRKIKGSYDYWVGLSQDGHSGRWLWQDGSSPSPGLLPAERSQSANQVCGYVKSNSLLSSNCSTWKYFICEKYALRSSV

MFI normalized to WT [1]: 1.01 | MFI normalized to WT [2]: 1 | MFI normalized to WT [3]: 1 | MFI normalized to WT [4]: 1.1 | MFI normalized to WT [5]: 1 | MFI normalized to WT [6]: 1.08 | MFI normalized to WT [7]: 1.16 | MFI normalized to WT [8]: 1.09 | MFI normalized to WT [9]: 0.94 | MFI normalized to WT [10]: 1.07 | MFI normalized to WT [11]: 1.07 | MFI normalized to WT [12]: 1.01 | MFI normalized to WT [13]: 46.7 | MFI normalized to WT [14]: 75.2 | Kd [15]: 1.18 nM | Kd [16]: 1.67 nM | EC50 (read off the curve) [17]: 2 nM | EC50 (read off the curve) [18]: 1 nM
Substance: mouse anti-human CD161 antibody HP-3G10
